Laboratory results as given in PMC3861103.

Experiments:
[1] = molecular target: T1, 6xHis-MBP-NHR-25 DBD (unmodified) (Caenorhabditis elegans, UniProt Q19345 1-173); assay: EMSA; 1 uM DNA; 50 mM Tris pH 8.0, 150 mM NaCl, 10 mM MgCl2, 10 mM DTT, 10 mM ATP, 400 ug/ml BSA, 1 uM dsDNA, 500 nM protein (200-700 nM titration), room temperature 30 min; 4-20% TBE gel, SYBR Gold; details: protein: recombinant; tags: N-terminal 6xHis-MBP; blunt
T1 sequence: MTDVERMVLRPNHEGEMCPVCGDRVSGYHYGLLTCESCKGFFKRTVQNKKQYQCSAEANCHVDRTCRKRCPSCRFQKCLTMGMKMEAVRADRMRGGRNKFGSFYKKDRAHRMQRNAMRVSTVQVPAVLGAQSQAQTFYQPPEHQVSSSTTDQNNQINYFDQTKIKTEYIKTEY

[2] = molecular target: T1, 6xHis-MBP-NHR-25 DBD (unmodified); assay: EMSA; 500 nM protein, 1 uM DNA; 50 mM Tris pH 8.0, 150 mM NaCl, 10 mM MgCl2, 10 mM DTT, 10 mM ATP, 400 ug/ml BSA, 1 uM dsDNA, 500 nM protein (200-700 nM titration), room temperature 30 min; 4-20% TBE gel, SYBR Gold; details: protein: recombinant, tags: N-terminal 6xHis-MBP

B1: 2xNR5RE WT (dsDNA)
DNA 1: CTAAAGGGAGCCAAGGTCATAGCGGCCAGTCAAGGCCAAGGGCGACAG
DNA 2: CTGTCGCCCTTGGCCTTGACTGGCCGCTATGACCTTGGCTCCCTTTAG
- binding result [1]: binds

B2: CYP11A1 (dsDNA)
DNA 1: ACATTTTATCAGCTTCTGGTATGGCCTTGAGCTGGTAGTTATAATCTTGGC
DNA 2: GCCAAGATTATAACTACCAGCTCAAGGCCATACCAGAAGCTGATAAAATGT
- binding result ([2]; blunt): binds

B3: MIS WT (dsDNA)
DNA 1: GATCCGCCAGGCACTGTCCCCCAAGGTCACCTTTGGTGTTGATAAGATCCC
DNA 2: TCGAGGGATCTTATCAACACCAAAGGTGACCTTGGGGGACAGTGCCTGGCG
- binding result ([2]; 5' overhangs 4 nt on both strands): binds
